Data as given in PMC5521794, “Understanding Russell’s viper venom factor V activator’s substrate specificity by surface plasmon resonance and in-silico studies” (PLoS ONE, 2017).

Target: Russell's viper venom factor V activator (Russell's viper, Natural, unmodified enzyme purified from Indian Russell's viper venom. The isoform (alpha or gamma) is not stated; gamma is assumed because the paper models RVV-V with PDB 3S9C. The candidate entry is)
Test: SPR; Biacore T200; RVV-V immobilised on a CM5 chip by amine coupling (3000 RU); peptides flowed over at 62.5 uM to 1 mM in PBS, 30 ul/min; association 120 s, dissociation 300 s; regeneration 10 mM glycine pH 2.5; two-state binding model
Conditions: both partners purified

B1: Peptide II (factor V cleavage site II, Lys1008-Pro1022) (peptide)
peptide: KHTHHAPLSPRTFHP
notes: also called site II peptide; source: synthetic peptide; bought: Genei
  Kd: 2780 µM
